The text below walks through data of US9540654B2, “Synthetic brassica-derived chloroplast transit peptides” (Dow AgroSciences LLC, priority 2012, dated 2017).

The subject of one assay is Zea mays B104. Description: Post-emergence glyphosate tolerance of dgt-28 T0 corn (greenhouse). In kind it is in vivo. To be noted: for protection to glyphosate: T0 corn, dgt-28 linked to the transit peptide. On the procedure:
Zea mays dgt-28 transformation events (T0) were allowed to acclimate in the greenhouse and were grown until plants had transitioned from tissue culture to greenhouse growing conditions (i.e., 2-4 new, normal looking leaves had emerged from the whorl). Plants were grown at 27° C. under 16 hour light:8 hour dark conditions in the greenhouse. The plants were then treated with commercial formulations of DURANGO DMA™ (containing the herbicide glyphosate) with the addition of 2% w/v ammonium-sulfate. Herbicide applications were made with a track sprayer at a spray volume of 187 L/ha, 50-cm spray height. T0 plants were sprayed with a range of glyphosate from 280-4480 g ae/ha glyphosate, which is capable of significant injury to untransformed corn lines. A lethal dose is defined as the rate that causes >95% injury to the B104 inbred.
T0 events of dgt-28 linked with TraP4, TraP5, TraP8 and TraP23 were generated by Agrobacterium transformation and were allowed to acclimate under controlled growth chamber conditions until 2-4 new, normal looking leaves had emerged from the whorl. Plants were assigned individual identification numbers and sampled for copy number analyses of both dgt-28 and aad-1. Based on copy number analyses, plants were selected for protein expression analyses. Plants were transplanted into larger pots with new growing media and grown at 27° C. under 16 hour light:8 hour dark conditions in the greenhouse. Remaining plants that were not sampled for protein expression were then treated with commercial formulations of DURANGO DMA™ (glyphosate) with the addition of 2% w/v ammonium-sulfate. Treatments were distributed so that each grouping of plants contained T0 events of varying copy number. Herbicide applications were made with a track sprayer at a spray volume of 187 L/ha, 50-cm spray height. T0 plants were sprayed with a range of glyphosate from 280-4480 g ae/ha glyphosate capable of significant injury to untransformed corn lines. A lethal dose is defined as the rate that causes >95% injury to the B104 inbred. B104 was the genetic background of the transformants.

Assay [1] has as its system tobacco (cv. Petit Havana). The assay can be described thus: Postemergence glyphosate tolerance of dgt-28 tobacco (T1, T2). The settings on record: T1 tobacco, 2240 g ae/ha glyphosate, 14 DAT. In kind it is in vivo. The text has this: T1 resistant plants from each event used in the progeny testing were given unique identifiers and sampled for zygosity analyses of the dgt-28 gene. Zygosity data were used to assign 2 hemizygous and 2 homozygous replicates to each rate of glyphosate applied allowing for a total of 4 replicates per treatment. These plants were compared against wildtype Petite havana tobacco. All plants were sprayed with a track sprayer set at 187 L/ha. The plants were sprayed from a range of 560-4480 g ae/ha DURANGO DMA™. All applications were formulated in water with the addition of 2% w/v ammonium sulfate (AMS). Plants were evaluated at 7 and 14 days after treatment. Plants were assigned an injury rating with respect to overall visual stunting, chlorosis, and necrosis. The T1 generation is segregating, so some variable response is expected due to difference in zygosity.
Rates of DURANGO DMA™ ranging from 420-3360 g ae/ha glyphosate were applied to 2-3 leaf tobacco as previously described.

The test system of assay [2] is chloroplasts of the tobacco leaf tissue. The assay can be described thus: Tobacco transient assay, confocal microscopy of TraP-YFP. To be noted: Agrobacterium-infiltrated tobacco leaves. In kind it is cell-based, Nicotiana benthamiana. From the text: The Trap12 and TraP13 chimeric chloroplast transit peptide sequences were initially tested via a transient in planta assay. Polynucleotide sequences which encode the Trap12 (SEQ ID NO:5) and TraP13 (SEQ ID NO:7) chimeric chloroplast transit peptide sequences were synthesized. A linker sequence (SEQ ID NO:10) was incorporated between the TraP sequence and the yfp coding sequence. The resulting constructs contained two plant transcription units (PTU). The first PTU was comprised of the Arabidopsis thaliana Ubiquitin 10 promoter (AtUbi10 promoter; Callis, et al., (1990) J. Biol. Chem., 265: 12486-12493), Trap yellow fluorescent protein fusion gene (TraP-YFP; US Patent App. 2007/0298412), and Agrobacterium tumefaciens ORF 23 3′ untranslated region (AtuORF23 3′UTR; U.S. Pat. No. 5,428,147). […]
Agrobacterium-infiltrated tobacco leaves were severed from the plant, and placed into a petri-dish with water to prevent dehydration. The infiltrated tobacco leaves were observed under blue light excitation with long-pass filter glasses held in place using a Dark Reader Hand Lamp™ (Clare Chemical Research Co.; Dolores, Colo.) to identify undamaged areas of the leaf that were successfully expressing the YFP reporter proteins. […]

Some results are limits rather than exact numbers.

For `O=C(O)CNCP(=O)(O)O` [glyphosate, reference compound], in the assay on Zea mays B104 (non-transformed corn plants), the “glyphosate concentration controlling non-transformed plants” value was at least 280 g ae/ha.

B1: TraP5: chloroplast transit peptide (SEQ ID NO:29) linked with dgt-28 (protein)
chain: MQLLNQRQALRLGRSSASKNQQVAPLASRPASSLSVSASSVAPAPACSAPAGAGRRAVVVRA
modifications: Chloroplast Transit Peptide
With B1, the “protection to glyphosate” value in the assay with Zea mays B104 is “robust protection”.

B2: TraP8: chloroplast transit peptide (SEQ ID NO:30) linked with dgt-28 (protein)
chain: MAQSSRICHGVQNPCVIISNLSKSNQNKSPFSVSLKTHQQQRRAYQISSWGLKKSNNGSVIRPVKA
modifications: Chloroplast Transit Peptide
For B2, the “protection to glyphosate” value in the assay with Zea mays B104 is “robust protection”. In addition, the “% Injury Ave” value in assay [1] came out at 9.3%.

B3: TraP13: chimeric chloroplast transit peptide SEQ ID NO:8, N-terminus from Arabidopsis thaliana, C-terminus from Brassica napus EPSPS (protein)
chain: MAQVSRICNGVQNPSLISNLSKSSQRKSPLSVSLKTQQPRASSWGLKKSGTMLNGSVIRPVKVTASVS
modifications: TraP13 chloroplast transit peptide
In the case of B3, the “localization of YFP fluorescence signal (microscopy imaging)” value in assay [2] was “accumulated within the chloroplasts”.

B4: TraP23: chloroplast transit peptide (SEQ ID NO:41) linked with dgt-28 or dgt-31 (protein)
chain: MAQINKSANGVRNASLISNFSNTRQAKSPFSLSCGTRLKNSSRGLKKVAVRLIGSRVKVSAS
modifications: Chloroplast Transit Peptide
In the case of B4, in the assay on Zea mays B104, the “protection to glyphosate” value is “robust protection”. Besides, the “% Injury Ave” value in assay [1] is listed as 9.5%.
